Experimental data: publication PMC11437077
Residue numbers refer to the chain shown, from its start. In names and notes the source's numbering stands.

B1: mouse PD-1 wild type expressed on CHO cells, Q02242 A132K (protein)
chain: LEVPNGPWRSLTFYPAWLTVSEGANATFTCSLSNWSEDLMLNWNRLSPSNQTEKQAAFCNGLSQPVQDARFQIIQLPNRHDFHMNILDTRRNDSGIYLCGAISLHPKKKIEESPGAELVVTERILETSTRYPSPSPKPEGRFQGMVIGIMSALVGIPVLLLLAWALAVFCSTSMSEARGAGSKDDTLKEEPSAAPVPSVAYEELDFQGREKTPELPTACVHTEYATIVFTEGLGASAMGRRGSADGLQGPRPPRHEDGHCSWPL
B2: mouse PD-1 wild type expressed on CHO cells, Q02242 L128A; K131A (protein)
chain: B1 chain with L104A, K107A, K108A
B3: mouse PD-1 wild type expressed on CHO cells, Q02242 K131A (protein)
chain: B1 chain with K107A, K108A

Columns and labels:
[1] = biological target: T1, mouse PD-L2 with C-terminal biotin, Q9WUL5; assay: 2D effective affinity measurement, PD-L2-coated RBCs against PD-1-expressing CHO cells; settings: chain shown with the change, parent: est. 0.00098, read off a plot
T1 chain: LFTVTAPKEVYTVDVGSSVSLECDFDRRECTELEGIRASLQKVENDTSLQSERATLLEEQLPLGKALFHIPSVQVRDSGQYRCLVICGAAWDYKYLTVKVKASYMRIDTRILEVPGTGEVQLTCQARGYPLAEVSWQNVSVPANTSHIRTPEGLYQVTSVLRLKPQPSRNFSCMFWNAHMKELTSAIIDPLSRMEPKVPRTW

[2] = biological target: T1, mouse PD-L2 with C-terminal biotin, …; assay: dynamic force spectroscopic analysis with BFP; settings: chain shown with the change
[3] = biological target: T1, mouse PD-L2 with C-terminal biotin, …; assay: bond lifetime vs force measurement, single bonds (BFP); settings: chain shown with the change, read off a plot
[4] = biological target: T1, mouse PD-L2 with C-terminal biotin, …; assay: effective bond lifetime (bond lifetime x bond survival probability, BFP data); settings: chain shown with the change, read off a plot

Binder | other: AcKa (2D effective affinity) ([1]; n = 12 cell pairs) | other: F1/2 (rupture force) ([2]; n = 270 events) | other: bond lifetime ([3]; force bin est. 2.2 pN) | other: bond lifetime ([3]; force bin est. 4.3 pN) | other: bond lifetime ([3]; force bin est. 11 pN) | other: AcKa (2D effective affinity) ([1]; n = 13 cell pairs) | other: F1/2 (rupture force) ([2]; n = 345 events) | other: effective bond lifetime ([4]; force bin est. 2.2 pN) | other: effective bond lifetime ([4]; force bin est. 4.3 pN) | other: effective bond lifetime ([4]; force bin est. 8.3 pN) | other: effective bond lifetime ([4]; force bin est. 11 pN) | other: F1/2 (rupture force) ([2]; n = 210 events)
B1 | 0.00085 µm^4 | 9.5 pN |  |  |  |  |  |  |  |  |  | 
B2 |  |  | 0.16 s | 0.15 s | 0.05 s | 0.00088 µm^4 | 9.7 pN | 0.16 s | 0.14 s | 0.04 s | 0.015 s | 
B3 | 0.0011 µm^4 |  |  |  |  |  |  |  |  |  |  | 9.4 pN
